Patent publication US20140056893A1 (Eli Lilly, published 2014)

Biological target: human glucagon-like peptide 1 receptor (hGLP-1R) (human, UniProt P43220 24-463)
Assay: cell-based or functional assay

In vitro potency (EC50), hGLP-1R-stimulated cAMP functional assay (Alpha Screen) in hGLP-1R-HEK293 cells: 0.067 nM
B1: Homodimeric protein wherein the amino acid sequence of each polypeptide of said protein is SEQ ID NO: 1 (Fc fusion)
chain: HGEGTFTSDVSSYLEEQAAKEFIAWLVAGGGGGGGSGGGGSGGGGSESKYGPPCPPCPAPEAAGGPSVFLFPPKPKDTLMISRTPEVTCVVVDVSCEDPEVQFNWYVDGVEVHNAKTKPREEQFNSTYRVVSVLTVLHQDWLNGKEYKCKVSNKGLPSSIEKTISKAKGQPREPQVYTLPPSCEEMTKNQVSLTCLVKGFYPSDIAVEWESNGQPENNYKTTPPVLDSDGSFFLYSRLTVDKSRWQEGNVFSCSVMHEALHNHYTQKSLSLSLGGGGGSGGGGSGGGGSAHPIPDSSPLLQFGGQVRQRYLYTDDAQQTECHLEIREDGTVGCAADQSPESLLQLKALKPGVIQILGVKTSRFLCQRPDGALYGSLHFDPEACSFREDLKEDGYNVYQSEAHGLPLHLPGDKSPHRKPAPRGPARFLPLPGLPPALPEPPGILAPQPPDVGSSDPLRLVEPSCLRSPSFE
